As usually defined, the EC50 is the concentration giving half of the maximal effect.

Experimental findings from US20230212554A1 are described below.

Substrate in test [1]: NP of B/Brisbane/60/2008(fluB) (influenza B virus B/Brisbane/60/2008)
As to the kind of experiment: ELISA on virus-infected fixed MDCK cells.

Substrate in test [2]: NP of A/Brisbane/59/2007(H1N1/H1B) (influenza A virus A/Brisbane/59/2007 (H1N1))
As to the kind of experiment: sandwich ELISA, capture IgG; NP of lysed virus titrated; HRP-NP16 detection.

Substrate in test [3]: NP of A/Brisbane/59/2007(H1N1/H1B) (influenza A virus A/Brisbane/59/2007 (H1N1))
As to the kind of experiment: sandwich ELISA, capture IgG; NP of lysed virus titrated; HRP-NP17 detection.

Substrate in test [4]: NP of A/Brisbane/59/2007(H1N1/H1B) (influenza A virus A/Brisbane/59/2007 (H1N1))
As to the kind of experiment: ELISA on virus-infected fixed MDCK cells. A general note: ELISA stands for enzyme-linked immunosorbent assay.

Positions count from the first letter of the chain named.

B1: NP24 (antibody, V domains shown)
VH: EVQLVESGGGLVQPGGSLRLSCAASGFTIDDWYIHWVRQAPGKGLEWVAGIGPYGGFTYYADSVKGRFTISADTSKNTAYLQMNSLRAEDTAVYYCARGYYGSFDYWGQGTLVTVSS
VL: DIQMTQSPSSLSASVGDRVTITCRASQDVGSSVAWYQQKPGKAPKLLIFYTSSLYSGVPSRFSGSGSGTDFTLTISSLQPEDFATYYCQQGWDSPVTFGQGTKVEIKR
For B1, the EC50 in test [1] worked out at 3.17 nM.

B2: NP20 (antibody, V domains shown)
VH: EVQLVESGGGLVQPGGSLRLSCAASGFTINGYSIHWVRQAPGKGLEWVASIGPYGGFTYYADSVKGRFTISADTSKNTAYLQMNSLRAEDTAVYYCAGFGFYYWGQGTLVTVSS
VL: DIQMTQSPSSLSASVGDRVTITCRASQDVGYGVAWYQQKPGKAPKLLISGASGLYSGVPSRFSGSGSGTDFTLTISSLQPEDFATYYCQQYSSFPLTFGQGTKVEIKR
In the case of B2, the EC50 in test [1] stood at 4.88 nM.

B3: NP6 (antibody, V domains shown)
VH: EVQLVESGGGLVQPGGSLRLSCAASGFTINDGSIHWVRQAPGKGLEWVAGIGPFGGFTYYADSVKGRFTISADTSKNTAYLQMNSLRAEDTAVYYCARSGYSGSFDYWGQGTLVTVSS
VL: B2 VL with G30Y, Y31F, S49Y, A51T, G53Y, Y91F, S93N, F94W, L96I
With B3, the EC50 in test [2] turned out to be 78.3 nM.

B4: NP7 (antibody, V domains shown)
VH: EVQLVESGGGLVQPGGSLRLSCAASGFTISNGGIHWVRQAPGKGLEWVAGIGPYGGFTSYADSVKGRFTISADTSKNTAYLQMNSLRAEDTAVYYCARFYSNYYGYHGVMDYWGQGTLVTVSS
VL: B2 VL with G30F, Y31G, G32W, G50Y, A51S, S52A, G53S, S92F, S93N, F94Y
In the case of B4, the EC50 in test [2] is 4.13 nM; in test [3] it was 4.15 nM.

B5: NP22 (antibody, V domains shown)
VH: B1 VH with D30S, Y33S, G52W, G55W, F57S, Y59S, Y100F, G102S, S103W
VL: B1 VL with G30F, S32W, F49S, Y50S, T51A, G91S, S94Y, V96I
For B5, the EC50 worked out at 7.11 nM in test [4], 3.92 nM in test [1], 59.4 nM in test [2] and 102 nM in test [3].

B6: NP2 (antibody, V domains shown)
VH: EVQLVESGGGLVQPGGSLRLSCAASGFTIGGGGIHWVRQAPGKGLEWVAGIWPYWGYTFYADSVKGRFTISADTSKNTAYLQMNSLRAEDTAVYYCARFWHGNLDVMDYWGQGTLVTVSS
VL: B2 VL with G30Y, Y31G, G32Y, S49Y, S52A, S93N
Take B6: the EC50 in test [1] was found to be 4.89 nM.

B7: NP21 (antibody, V domains shown)
VH: EVQLVESGGGLVQPGGSLRLSCAASGFTINGYGIHWVRQAPGKGLEWVAGIWPYGGSTFYADSVKGRFTISADTSKNTAYLQMNSLRAEDTAVYYCARFYNNHGGIMDYWGQGTLVTVSS
VL: B2 VL with G30Y, Y31F, G32Y, S49Y, A51S, S52R, G53W, S93N, L96V
Take B7: the EC50 turned out to be 4.6 nM in test [4], 2.71 nM in test [2] and 0.81 nM in test [3].

B8: NP19 (antibody, V domains shown)
VH: EVQLVESGGGLVQPGGSLRLSCAASGFTISSWGIHWVRQAPGKGLEWVAGIGPFWGYTSYADSVKGRFTISADTSKNTAYLQMNSLRAEDTAVYYCARFGVDNYGYMDYWGQGTLVTVSS
VL: B2 VL with G30S, Y31G, G32W, G50W, A51S, S52T, S92F, S93N, L96V
As to B8, the EC50 in test [4] is 0.295 nM; in test [2] it was 3.37 nM; in test [3], 0.812 nM.

B9: NP18 (antibody, V domains shown)
VH: B6 VH with G30S, G50S, Y54S, Y57S, F59S, W100H, H101N, N103G, L104F, D105L
VL: B2 VL with P8S, G32Y, S49Y, A51P, S52R, G53F, S93N, F94W, L96I
With B9, the EC50 was 7 nM in test [4] and 66.4 nM in test [3].

B10: NP15 (antibody, V domains shown)
VH: EVQLVESGGGLVQPGGSLRLSCAASGFTISNWYIHWVRQAPGKGLEWVAGIGPYGGSTYYADSVKGRFTISADTSKNTAYLQMNSLRAEDTAVYYCARFHWDHLHGMDYWGQGTLVTVSS
VL: B2 VL with G30D, Y31N, G32N, G50Y, A51S, S52T, S92W, S93N, F94Y, L96I
Consider B10, for which the EC50 in test [4] turned out to be 0.668 nM; in test [2], 4.61 nM; in test [3], 0.926 nM.

B11: NP25 (antibody, V domains shown)
VH: B1 VH with D30G, D31G, W32G, Y33F, G50S, G52W, G55W, Y100S, S103Y, F104S
VL: B1 VL with S26G, G30S, S32G, F49S, Y50W, S53F, G91Y, W92Y, S94Y, V96I
For the molecule B11, the EC50 in test [4] is 4.83 nM; in test [1], 2.17 nM.

B12: NP16 (antibody, V domains shown)
VH: EVQLVESGGGLVQPGGSLRLSCAASGFTIGNSGIHWVRQAPGKGLEWVAWIGPYWGFTSYADSVKGRFTISADTSKNTAYLQMNSLRAEDTAVYYCARFGNHWHLFMDYWGQGTLVTVSS
VL: B2 VL with Y31S, G32Y, G50W, A51T, S52T, S92F, F94Y, L96V
Consider B12, for which the figures for the EC50 in test [4], in test [2] and in test [3] were 0.21 nM, 4.74 nM and 0.89 nM, respectively.

B13: NP5 (antibody, V domains shown)
VH: EVQLVESGGGLVQPGGSLRLSCAASGFTISNGSIHWVRQAPGKGLEWVAGIWPSGGSTSYADSVKGRFTISADTINNSAYLQMNSLRAEDTAVYYCARWNYWGQGTLVTVSS
VL: B1 VL with S31W, F49Y, Y50G, T51S, S52R, S53W, W92Y, D93N, S94G, V96L
Take B13: the figures for the EC50 in test [2] and in test [3] were 4.02 nM and 1.82 nM, respectively.

B14: NP17 (antibody, V domains shown)
VH: B7 VH with N30S, Y32G, G33S, G50S, Y54F, Y100G, N101H, N102G, G104N, G105V
VL: B2 VL with G32S, G50S, A51P, S52G, S92Y, S93D, F94Y, L96V
B14: the EC50 in test [2] was 4.08 nM; in test [3] it was 2.22 nM.

B15: NP3 (antibody, V domains shown)
VH: B7 VH with N30S, G31N, Y54F, S57F, F59S, Y100H, N101W, H103D, G104H, I106Y
VL: B2 VL with Y31W, G32Y, S49Y, G50S, A51T, S52T, S92Y, S93N, F94Y, L96I
Regarding B15, the concentration giving a half-maximal response (EC50) in test [4] worked out at 0.521 nM; in test [2] it was 2.36 nM; in test [3], 1.04 nM.
